Measurements from publication PMC11191652 (Biomaterials science, 2024).

Molecular target: p300 (UniProt Q09472 1-2414)
Assay: ELISA

Chain of p300 (Q09472 whole entry): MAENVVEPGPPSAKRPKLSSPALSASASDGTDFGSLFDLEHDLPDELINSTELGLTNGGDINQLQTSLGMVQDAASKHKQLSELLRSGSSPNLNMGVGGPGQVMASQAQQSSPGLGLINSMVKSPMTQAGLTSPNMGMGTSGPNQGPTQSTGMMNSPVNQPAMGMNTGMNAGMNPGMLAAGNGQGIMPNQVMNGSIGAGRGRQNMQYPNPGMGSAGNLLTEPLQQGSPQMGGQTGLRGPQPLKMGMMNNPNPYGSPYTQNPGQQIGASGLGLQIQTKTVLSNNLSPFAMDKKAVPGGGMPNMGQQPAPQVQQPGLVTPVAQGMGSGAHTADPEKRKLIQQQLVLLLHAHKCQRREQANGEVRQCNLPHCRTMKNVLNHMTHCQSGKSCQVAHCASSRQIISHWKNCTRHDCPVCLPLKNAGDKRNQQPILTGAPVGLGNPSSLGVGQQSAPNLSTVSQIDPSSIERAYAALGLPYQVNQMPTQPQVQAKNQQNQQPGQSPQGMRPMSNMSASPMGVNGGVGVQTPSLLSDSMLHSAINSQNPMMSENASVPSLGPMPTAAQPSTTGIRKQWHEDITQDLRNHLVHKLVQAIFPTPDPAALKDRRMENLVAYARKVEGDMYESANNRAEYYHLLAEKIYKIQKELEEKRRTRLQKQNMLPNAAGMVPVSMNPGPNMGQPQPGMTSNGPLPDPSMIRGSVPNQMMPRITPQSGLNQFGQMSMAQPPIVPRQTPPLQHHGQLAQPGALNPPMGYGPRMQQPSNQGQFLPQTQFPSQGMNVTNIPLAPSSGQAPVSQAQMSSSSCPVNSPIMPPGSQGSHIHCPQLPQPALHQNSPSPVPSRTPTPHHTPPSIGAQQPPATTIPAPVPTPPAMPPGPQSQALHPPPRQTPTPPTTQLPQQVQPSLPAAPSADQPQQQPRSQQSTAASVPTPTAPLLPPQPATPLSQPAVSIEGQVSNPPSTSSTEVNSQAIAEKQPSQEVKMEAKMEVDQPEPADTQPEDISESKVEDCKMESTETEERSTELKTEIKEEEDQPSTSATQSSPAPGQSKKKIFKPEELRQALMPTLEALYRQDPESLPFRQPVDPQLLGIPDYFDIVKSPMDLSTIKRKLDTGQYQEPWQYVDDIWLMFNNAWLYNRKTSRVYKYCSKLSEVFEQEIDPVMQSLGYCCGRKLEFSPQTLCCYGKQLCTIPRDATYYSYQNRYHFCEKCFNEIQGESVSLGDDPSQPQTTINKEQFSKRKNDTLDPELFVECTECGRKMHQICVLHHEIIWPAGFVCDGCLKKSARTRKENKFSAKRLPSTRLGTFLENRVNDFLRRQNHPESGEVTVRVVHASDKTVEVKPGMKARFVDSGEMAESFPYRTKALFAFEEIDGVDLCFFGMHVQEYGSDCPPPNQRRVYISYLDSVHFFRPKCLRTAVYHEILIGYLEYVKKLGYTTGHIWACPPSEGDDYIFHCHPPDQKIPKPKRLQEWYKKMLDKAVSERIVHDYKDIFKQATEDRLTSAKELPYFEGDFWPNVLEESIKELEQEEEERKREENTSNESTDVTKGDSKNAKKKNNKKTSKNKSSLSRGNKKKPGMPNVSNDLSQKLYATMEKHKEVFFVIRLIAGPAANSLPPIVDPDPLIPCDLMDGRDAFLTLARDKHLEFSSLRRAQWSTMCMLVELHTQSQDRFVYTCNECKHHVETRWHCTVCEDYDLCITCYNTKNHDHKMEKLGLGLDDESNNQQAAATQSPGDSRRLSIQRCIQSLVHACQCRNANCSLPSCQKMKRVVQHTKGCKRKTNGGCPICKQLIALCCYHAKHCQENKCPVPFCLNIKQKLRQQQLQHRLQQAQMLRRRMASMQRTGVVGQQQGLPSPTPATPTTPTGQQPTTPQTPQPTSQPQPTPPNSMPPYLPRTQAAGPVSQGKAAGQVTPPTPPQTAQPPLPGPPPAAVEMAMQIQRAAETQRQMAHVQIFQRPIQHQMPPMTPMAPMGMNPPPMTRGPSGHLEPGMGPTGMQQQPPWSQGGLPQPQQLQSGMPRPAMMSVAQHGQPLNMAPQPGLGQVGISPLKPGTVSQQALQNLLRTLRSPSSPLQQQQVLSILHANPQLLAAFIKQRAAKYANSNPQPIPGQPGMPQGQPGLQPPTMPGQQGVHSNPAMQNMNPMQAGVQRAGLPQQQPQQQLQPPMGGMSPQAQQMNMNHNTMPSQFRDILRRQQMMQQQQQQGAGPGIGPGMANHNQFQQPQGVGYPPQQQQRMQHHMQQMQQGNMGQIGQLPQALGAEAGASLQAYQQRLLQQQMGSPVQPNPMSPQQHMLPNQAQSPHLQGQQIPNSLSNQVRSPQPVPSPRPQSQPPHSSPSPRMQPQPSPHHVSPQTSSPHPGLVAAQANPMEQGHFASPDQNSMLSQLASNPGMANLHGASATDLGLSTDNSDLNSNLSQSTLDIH

Kd: 14.5 nM
B1: HIF1α C-terminal transactivation domain, HIF1α_(786–826) (domain or fragment, UniProt Q16665 786-826, looked up)
chain: SMDESGLPQLTSYDCEVNAPIQGSRNLLQGEELLRALDQVN
